Measured values taken from patent publication US20210324359A1, “USE OF GRAM-NEGATIVE LYSIN-ANTIMICROBIAL PEPTIDE (AMP) POLYPEPTIDE CONSTRUCTS IN TREATING ENDOCARDITIS” (priority 2020, published 2021).
Values joined by “and” are separate entries in the source; they are usually repeats but may differ in a detail not shown here. Equal values may be shown once.

Assays:
[1] = tested on: P. aeruginosa strain WC-453; experiment: Time-kill assay in HEPES or CAA with 25% human serum (Tables 7, 8); assay type: cell-based, Pseudomonas aeruginosa
Procedure: Exponential phase bacteria were then pelleted and resuspended in 1/5 culture volume of 25 mM HEPES, pH 7.4 before a final adjustment to an optical density corresponding to a McFarland value of 0.5. […] All treatments were incubated at 37° C. with aeration. At time points before the addition of lysin (or buffer control) and at 1 hour and 3 hours intervals thereafter, culture samples were removed for quantitative plating on CAA agar plates.

[2] = tested on: Pseudomonas aeruginosa strain CFS-1292 (meropenem resistant); experiment: MIC in 25% CAA alone, with […] human serum or […] SURVANTA (Table 13); assay type: cell-based
Procedure: Materials and methods: MICs were determined by broth microdilution in media supplemented with human serum and pulmonary surfactant ([…]®; Myoderm Clinical Supplies). Minimal biofilm eradicating concentrations (MBECs) were determined using standard methods. […] Fluorescence microscopy was performed after LIVE/DEAD staining (ThermoFisher) and TEM was performed.

P. aeruginosa isolates = experiment: MIC against a range of isolates in CAA + […] human serum (Table 11); assay type: cell-based, Pseudomonas aeruginosa
[3] = tested on: outer membrane of P. aeruginosa (CFS 1292); experiment: N-phenyl-1-napthylamine (NPN) uptake assay, outer membrane destabilization (Table 15); assay type: cell-based, Pseudomonas aeruginosa; conditions: NPN fluorescence, buffer = 100, lysin 100 μg/well
Procedure: The ability of gram-negative lysins to destabilize the outer membrane of P. aeruginosa was evaluated through the use of an N-phenyl-1-napthylamine (NPN) uptake assay. […] NPN was added to a final concentration of […]. […] Changes in fluorescence were recorded (excitation 1=350 nm; emission 1=420 nm) over two hours.

[4] = tested on: carbapenem-resistant P. aeruginosa strains; experiment: Resensitization of carbapenem-resistant strains, combinations with imipenem or meropenem (Tables 18-22); assay type: cell-based, Pseudomonas aeruginosa

B1: GN121: variant lysin (SEQ ID NO: 175), also disclosed in WO 2019/118632 (protein)
chain: MTYTLSKRSLDNLKGVHPDLVAVVHRAIQLTPVDFAVIEGLRSVSRQKELVAAGASKTMNSRHLTGHAVDLAAYVNGIRWDWPLYDAIAVAVKAAAKELGVAIVWGGDWTTFKDGPHFELDRSKYRRKKTRKRLKKIGKVLKWI
bactericidal activity (CFU decrease of 3-Log10, 3 hours after the addition of lysin) ([1]; 10 μg/mL, enumerated lysins in CAA/HuS, general statement for HEPES and CAA/HuS): bactericidal activity
HEPES (Log10 CFU/mL), 1 hr ([1]; 25 mM HEPES pH 7.4, lysin 10 μg/ml, 1 hr, WC-453): <3.7 Log10 CFU/mL
HEPES (Log10 CFU/mL), 3 hr ([1]; 25 mM HEPES pH 7.4, lysin 10 μg/ml, 3 hr, WC-453): <3.7 Log10 CFU/mL
CAA/HuS (Log10 CFU/mL), 1 hr ([1]; CAA + 25% human serum, lysin 10 μg/ml, 1 hr, WC-453): 7.6 Log10 CFU/mL
CAA/HuS (Log10 CFU/mL), 3 hr ([1]; CAA + 25% human serum, lysin 10 μg/ml, 3 hr, WC-453): <3.7 Log10 CFU/mL
MIC in […] Survanta [2]: 2 µg/mL
MIC in human serum ([…]) in CAA [2]: 0.5 µg/mL
activity in human serum and pulmonary surfactant [2]: active in human serum and pulmonary surfactant
25% CAA MIC ([2]; media alone): 1
activity against P. aeruginosa isolates in human serum or SURVANTA (P. aeruginosa isolates; Tables 11 and 12): active against a variety of P. aeruginosa isolates
MIC, CAA + […] Human Serum (P. aeruginosa isolates; strain CFS 1109 (ATCC 17646)): 0.5 µg/mL
MIC, CAA + […] Human Serum (P. aeruginosa isolates; strain CFS 1292): 1 µg/mL
MIC, CAA + […] Human Serum (P. aeruginosa isolates; strain CFS1539 (PA1)): 0.5 µg/mL
MIC, CAA + […] Human Serum (P. aeruginosa isolates; strain CFS 1540 (PA2)): 0.5 µg/mL
MIC, CAA + […] Human Serum (P. aeruginosa isolates; strain CFS 1541 (PA3)): 0.5 µg/mL
MIC, CAA + […] Human Serum (P. aeruginosa isolates; strain CFS 1557 (PA19)): 2 µg/mL
MIC, CAA + […] Human Serum (P. aeruginosa isolates; strain CFS 1558 (PA20)): 0.5 µg/mL
MIC, CAA + […] Human Serum (P. aeruginosa isolates; strain CFS 1559 (PA21)): 1 µg/mL
MIC, CAA + […] Human Serum (P. aeruginosa isolates; strain CFS 1560 (PA22)): 1 µg/mL
MIC, CAA + […] Human Serum (P. aeruginosa isolates; strain CFS 1561 (PA23)): 1 µg/mL
MIC, CAA + […] Human Serum (P. aeruginosa isolates; strain CFS 1562 (PA24)): 1 µg/mL
MIC, CAA + […] Human Serum (P. aeruginosa isolates; strain CFS 1596 (PA26)): 0.5 µg/mL
MIC, CAA + […] Human Serum (P. aeruginosa isolates; strain CFS 1597 (PA27)): 0.5 µg/mL
MIC, CAA + […] Human Serum (P. aeruginosa isolates; strain CFS 1669 (PA41)): 1 µg/mL
MIC, CAA + […] Human Serum (P. aeruginosa isolates; strain CFS 1674 (PA46)): 0.5 µg/mL
MIC, CAA + […] Human Serum (P. aeruginosa isolates; strain CFS 1675 (PA47)): 0.5 µg/mL
MIC, CAA + […] Human Serum (P. aeruginosa isolates; strain CFS 1766 (ATCC 27853)): 2 µg/mL
% RFU ([3]; 5 minutes): 370 % RFU
% RFU ([3]; 10 minutes): 500 % RFU
% RFU ([3]; 20 minutes): 528 % RFU
% RFU ([3]; 40 minutes): 530 % RFU
% RFU ([3]; 60 minutes): 565 % RFU
% RFU ([3]; 100 minutes): 557 % RFU
resensitization to carbapenems in synergistic combinations ([4]; imipenem (IPM) and meropenem (MEM), carbapenem-resistant isolates): reductions of IPM and MEM MICS to below breakpoint values
lysin MIC, Combination ([4]; in combination with imipenem, isolate PA19): 0.125 µg/mL
lysin MIC, Combination ([4]; in combination with imipenem, isolate PA20): 0.25 µg/mL
lysin MIC, Combination ([4]; in combination with imipenem, isolate PA21): 0.125 µg/mL
lysin MIC, Combination ([4]; in combination with imipenem, isolate PA22): 0.25 µg/mL
lysin MIC, Combination ([4]; in combination with imipenem, isolate PA23): 0.25 µg/mL
lysin MIC, Combination ([4]; in combination with imipenem, isolate PA24): 0.125 µg/mL
lysin MIC, Combination ([4]; in combination with meropenem, isolate PA19): 0.5 µg/mL
lysin MIC, Combination ([4]; in combination with meropenem, isolate PA20): 0.5 µg/mL
lysin MIC, Combination ([4]; in combination with meropenem, isolate PA22): 0.25 µg/mL
lysin MIC, Combination ([4]; in combination with meropenem, isolate PA23): 0.5 µg/mL
lysin MIC, Combination ([4]; in combination with meropenem, isolate WC-452): 0.06 µg/mL
MIC, Alone ([4]; isolate PA19): 1 µg/mL and 2 µg/mL
MIC, Alone ([4]; isolate PA20): 1 µg/mL and 2 µg/mL
MIC, Alone ([4]; isolate PA21): 1 µg/mL
MIC, Alone ([4]; isolate PA22): 2 µg/mL and 1 µg/mL
MIC, Alone ([4]; isolate PA23): 1 µg/mL and 2 µg/mL
MIC, Alone ([4]; isolate PA24): 1 µg/mL
MIC, Alone ([4]; isolate WC-452): 1 µg/mL
FICI ([4]; lysin + imipenem, isolate PA19): 0.155
FICI ([4]; lysin + imipenem, isolate PA20): 0.265
FICI ([4]; lysin + imipenem, isolate PA21): 0.155
FICI ([4]; lysin + imipenem, isolate PA22): 0.188
FICI ([4]; lysin + imipenem, isolate PA23): 0.257
FICI ([4]; lysin + imipenem, isolate PA24): 0.155
FICI ([4]; lysin + meropenem, isolate PA19): 0.281
FICI ([4]; lysin + meropenem, isolate PA20): 0.313
FICI ([4]; lysin + meropenem, isolate PA21): 0.188
FICI ([4]; lysin + meropenem, isolate PA22): 0.313
FICI ([4]; lysin + meropenem, isolate PA23): 0.375
FICI ([4]; lysin + meropenem, isolate PA24): 0.156
FICI ([4]; lysin + meropenem, isolate WC-452): 0.123
